Experimental data from publication PMC3087862 (Nature structural & molecular biology, 2011).

B1: human Hsp90α two-domain construct MC (293-732) (domain or fragment)
chain: not shown
B2: human Hsp90α full-length protein without part of the N-M linker (Hsp90Δ; 1-732, 241-268 deleted) (natural protein)
chain: not shown

Target: the molecule itself
Assay: SEC

| Protein | stoichiometry N |
| --- | --- |
| B1 | 2 |
| B2 | 2 |
